From publication doi:10.1101/2020.11.04.368696v1 come the findings set out here.

In the series the test system is CC/C=C\CCO. As to the kind of experiment: purified protein. The conditions noted are these: 2 mM acetyl-CoA, 50 °C.

With “CATec3 (CAT3_ECOLIX) (Escherichia coli; Y20F)”, the Km worked out at 6.4 ± 2.2 mM and the kcat stood at 2.3 ± 0.2 s⁻¹.

For orientation: Km means the concentration of substrate that gives half-maximal velocity. For orientation: kcat means the maximal rate divided by the concentration of active sites.
